In patent US9579358B2, “Compositions for binding to amyloid proteins” (LANCASTER UNIVERSITY BUSINESS ENTERPRISES LIMITED, priority 2011, dated 2017):
Non-standard residues stand in square brackets, D forms with d. No end group written: not given here.

What was measured:
[1] = biological target: T1, Aβ42 (Homo sapiens, UniProt P05067); assay: Thioflavin T (ThT) assay for Aβ fibrils; format: biochemical; settings: for % of control: Aβ alone = 100
T1 construct: Recombinant Aβ42, Ultrapure, was purchased from rPeptide, Bogart, Ga., USA; purchased rPeptide, Bogart, Ga., USA
T1 sequence (P05067 672-713 limits assumed): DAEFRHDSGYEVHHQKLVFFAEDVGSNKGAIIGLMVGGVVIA
Description: This method was the same as that published previously. Briefly, 60 μl samples of solutions containing Aβ42 (25 μM), ThT (15 μM) and between 0 and 125 μM RI-OR2 or RI-OR2-TAT, in 10 mM phosphate buffered saline (PBS), pH 7.4, were incubated in sealed, black, clear-bottomed 384-well plates (Corning). ThT fluorescence was monitored every 10 mins (λex=442 nm, λem=483 nm) for 48 h at 30° C. in a Biotek Synergy 2 plate reader.

[2] = biological target: T2, Aβ42 fibrils (Homo sapiens, UniProt P05067); assay: Surface plasmon resonance binding to immobilized Aβ42 fibrils; settings: read-out: Kd, binding to Aβ fibrils
T2 construct: purchased rPeptide, Bogart, Ga., USA
T2 sequence (P05067 672-713 limits assumed): as above
Excerpt: SPR (Surface Plasmon Resonance) is a technique that can be used to measure the affinity of a substance for a substrate. The substrate (in this case Aβ fibrils) is bound to a solid surface and excited using a laser light source. The compound to be tested (e.g. PINPs) is allowed to flow over the bound substrate in suspension/solution and the emission spectra of the substrate will change if the compound binds. A second solution, without the test compound, can then added to elute any bound compound and the emission spectra may be observed to note loss of bound compound from the substrate. For a specific example regarding peptide binding to Aβ see reference (30).
In the examples presented here, The substance is introduced at a flow rate of 30 uL/min for 5 minute over the immobilized substrate. There is a spike in the signal which is due to the introduction of solvent without PINPs to show removal of the peptide bound to the Aβ fibrils. There are two plots related to addition of peptide at two different concentrations, 1 and 3 μM, plus a computer generated fitted curve for each one.
These experiments were conducted using a Sensi Q semi-automatic SPR machine (ICx Nomadics). This apparatus has two parallel flow cells; one was used to immobilize Aβ42 fibrils while the other was used as “reference” (empty surface). A COOH5 sensor chip (ICx Nomadics) was employed for this purpose and the peptide was immobilized by amine coupling chemistry. Briefly, after surface activation, the peptide preparation was diluted to 10 μM in acetate buffer (pH 4.0) and then injected for 5 min at a flow rate of 30 μL/min. Any remaining activated groups were blocked with ethanolamine (pH 8.0). The final immobilization level was ˜5,000 resonance units (1 RU=1 pg of protein/mm^2). The empty “reference” surface was prepared in parallel using the same immobilization procedure, but without addition of the peptide. Sensorgrams were then obtained via injection of three different concentrations of RI-OR2-TAT (1, 3 and 6 μM), as well as the vehicle (PBS with 0.005% Tween 20), over the immobilized ligand or control surface, in parallel.
These experiments were conducted using a Sensi Q semi-automatic SPR machine (ICx Nomadics). This apparatus has two parallel flow cells; one was used to immobilize Aβ(1-42) fibrils (see Aβ peptides) while the other was used as “reference” (empty surface). A COOH5 sensor chip (ICx Nomadics) was employed for this purpose and the peptide was immobilized by amine coupling chemistry. Briefly, after surface activation, the peptide preparations was diluted to 10 μM in acetate buffer (pH 4.0) and then injected for 5 min at a flow rate of 30 μL/min. Any remaining activated groups were blocked with ethanolamine (pH 8.0). The final immobilization level was 5000 resonance units (1 RU=1 pg of protein/mm^2). The empty “reference” surface was prepared in parallel using the same immobilization procedure, but without addition of the peptide. Sensorgrams were then obtained via injection of two different concentrations of RI-OR2 TAT/peptide liposome (1 and 3 μM), as well as the vehicle (PBS with 0.005% Tween 20), over the immobilized ligand or control surface, in parallel, at the same time.

[3] = tested on: SHSY-5Y cells; assay: MTT cell viability assay, protection from pre-aggregated Aβ1-42; format: cell-based; settings: for Absorption units (560 nm): control with Abeta 2.467, no Abeta 3.608
Description: SHSY 5Y cells were grown and maintained in DMEM (Dulbecco's Modified Eagle Medium) supplemented with FBS under standard mammalian cell culture conditions. During treatment cells were kept in Optimem plus or minus peptide liposomes in 96 well plates at 20000 cells per well for 24 hours, again under standard culture conditions. For cell protection assays 5 μM of pre-aggregated Aβ1-42 was added at the same time as peptide liposomes. Cell viability was assessed for four wells for each treatment using a Promega CellTiter assay kit.

[4] = biological target: T1, Aβ42; assay: Sandwich immunoassay (6E10) for Aβ oligomers; format: biochemical; settings: Aβ1-42 12.5 μM

## PINPs: RI-OR2-TAT covalently attached to nanoliposomes (cholesterol:sphingomyelin [1:1] with 2.5% maleimide) via an additional cysteine (Ac-[dR]G[dF][dF][dV][dL][dK]G[dR][dR][dR][dR][dQ][dR][dR][dK][dK][dR]G[dY][dC]; not fully specified (residue 21); also: C-terminal D-Cys coupled via its thiol to maleimide lipid of nanoliposome)
[1]; 1:50 molar ratio of PINPS:Aβ, 48 hours, Aβ1-42 25 μM
  reduction in aggregate formation: ~50%
[1]; 1:500 molar ratio of PINPs (total lipids):Aβ
  ThT signal by 48 hours: below that of Aβ1-42 alone
[1]; 1 to 1 PINPS (total lipids):Aβ, Aβ1-42 25 μM
  RFU at 48 hours: 13817 RFU
[1]; 1 to 1 PINPS:Aβ, 48 hours
  % of control: 7.1%
[1]; 1 to 5 PINPS (total lipids):Aβ, Aβ1-42 25 μM
  RFU at 48 hours: 14450 RFU
[1]; 1 to 5 PINPS:Aβ, 48 hours
  % of control: 7.4%
[1]; 1 to 10 PINPS (total lipids):Aβ, Aβ1-42 25 μM
  RFU at 48 hours: 15664 RFU
[1]; 1 to 10 PINPS:Aβ, 48 hours
  % of control: 8.1%
[1]; 1 to 50 PINPS (total lipids):Aβ, Aβ1-42 25 μM
  RFU at 48 hours: 85107 RFU
[1]; 1 to 50 PINPS:Aβ, 48 hours
  % of control: 44.0%
[1]; 1 to 100 PINPS (total lipids):Aβ, Aβ1-42 25 μM
  RFU at 48 hours: 132977 RFU
[1]; 1 to 100 PINPS:Aβ, 48 hours
  % of control: 68.8%
[1]; 1 to 500 PINPS (total lipids):Aβ, Aβ1-42 25 μM
  RFU at 48 hours: 165060 RFU
[1]; 1 to 500 PINPS:Aβ, 48 hours
  % of control: 85.5%
[1]; 1 to 1000 PINPS (total lipids):Aβ, Aβ1-42 25 μM
  RFU at 48 hours: 171555 RFU
[1]; 1 to 1000 PINPS:Aβ, 48 hours
  % of control: 88.8%
[1]; 1 to 5000 PINPS (total lipids):Aβ, Aβ1-42 25 μM
  RFU at 48 hours: 148012 RFU
[1]; 1 to 5000 PINPS:Aβ, 48 hours
  % of control: 76.6%
[1]; 1 to 10000 PINPS (total lipids):Aβ, Aβ1-42 25 μM
  RFU at 48 hours: 204059 RFU
[1]; 1 to 10000 PINPS:Aβ, 48 hours
  % of control: 105%
[1]; 1 to 50000 PINPS (total lipids):Aβ, Aβ1-42 25 μM
  RFU at 48 hours: 199514 RFU
[1]; 1 to 50000 PINPS:Aβ, 48 hours
  % of control: 103%
[1]; 1 to 100000 PINPS (total lipids):Aβ, Aβ1-42 25 μM
  RFU at 48 hours: 188616 RFU
[1]; 1 to 100000 PINPS:Aβ, 48 hours
  % of control: 97.0%
[2]
  Kd: 14 to 44 nM
[3]; PINPs 0.01 μM plus 5 μM pre-aggregated Aβ1-42
  Absorption units (560 nm): 3.370 Absorption units
[3]; PINPs 0.1 μM plus 5 μM pre-aggregated Aβ1-42
  Absorption units (560 nm): 3.478 Absorption units
[3]; PINPs 1 μM plus 5 μM pre-aggregated Aβ1-42
  Absorption units (560 nm): 3.252 Absorption units
[3]; PINPs 10 μM plus 5 μM pre-aggregated Aβ1-42
  Absorption units (560 nm): 3.538 Absorption units
[3]; PINPs at 10, 1, 0.1, 0.01 μM
  cell viability in the presence of pre-aggregated Aβ1-42: cell viability remained near that of untreated cells
[4]; 1:100 molar ratio of PINPS (total lipids):Aβ
  inhibition of oligomer formation: still substantial
[4]; PINPs 1:1, 0 hours
  immunoassay signal (time-resolved fluorescence, europium): 9494 relative fluorescence units
[4]; PINPs 1:1, 2 hours
  immunoassay signal (time-resolved fluorescence, europium): 17524 relative fluorescence units
[4]; PINPs 1:1, 4 hours
  immunoassay signal (time-resolved fluorescence, europium): 62958 relative fluorescence units
[4]; PINPs 1:1, 8 hours
  immunoassay signal (time-resolved fluorescence, europium): 116308 relative fluorescence units
[4]; PINPs 1:1, 24 hours
  immunoassay signal (time-resolved fluorescence, europium): 178685 relative fluorescence units
[4]; PINPs 1:1, 48 hours
  immunoassay signal (time-resolved fluorescence, europium): 122098 relative fluorescence units
[4]; PINPs 1:10, 0 hours
  immunoassay signal (time-resolved fluorescence, europium): 9666 relative fluorescence units
[4]; PINPs 1:10, 2 hours
  immunoassay signal (time-resolved fluorescence, europium): 33960 relative fluorescence units
[4]; PINPs 1:10, 4 hours
  immunoassay signal (time-resolved fluorescence, europium): 63899 relative fluorescence units
[4]; PINPs 1:10, 8 hours
  immunoassay signal (time-resolved fluorescence, europium): 77883 relative fluorescence units
[4]; PINPs 1:10, 24 hours
  immunoassay signal (time-resolved fluorescence, europium): 95760 relative fluorescence units
[4]; PINPs 1:10, 48 hours
  immunoassay signal (time-resolved fluorescence, europium): 198806 relative fluorescence units
[4]; PINPs 1:50, 0 hours
  immunoassay signal (time-resolved fluorescence, europium): 7833 relative fluorescence units
[4]; PINPs 1:50, 2 hours
  immunoassay signal (time-resolved fluorescence, europium): 124190 relative fluorescence units
[4]; PINPs 1:50, 4 hours
  immunoassay signal (time-resolved fluorescence, europium): 111776 relative fluorescence units
[4]; PINPs 1:50, 8 hours
  immunoassay signal (time-resolved fluorescence, europium): 177380 relative fluorescence units
[4]; PINPs 1:50, 24 hours
  immunoassay signal (time-resolved fluorescence, europium): 173198 relative fluorescence units
[4]; PINPs 1:50, 48 hours
  immunoassay signal (time-resolved fluorescence, europium): 99592 relative fluorescence units
[4]; PINPs 1:100, 0 hours
  immunoassay signal (time-resolved fluorescence, europium): 3766 relative fluorescence units
[4]; PINPs 1:100, 2 hours
  immunoassay signal (time-resolved fluorescence, europium): 78306 relative fluorescence units
[4]; PINPs 1:100, 4 hours
  immunoassay signal (time-resolved fluorescence, europium): 82278 relative fluorescence units
[4]; PINPs 1:100, 8 hours
  immunoassay signal (time-resolved fluorescence, europium): 141932 relative fluorescence units
[4]; PINPs 1:100, 24 hours
  immunoassay signal (time-resolved fluorescence, europium): 154889 relative fluorescence units
[4]; PINPs 1:100, 48 hours
  immunoassay signal (time-resolved fluorescence, europium): 131004 relative fluorescence units
